This note sets out measurements from patent publication US20160061835A1 (BAYLOR COLLEGE OF MEDICINE, published 2016).

For the assay, the target named is T1, Norwalk virus (NV) virus-like particle (Norwalk virus (genotype GI.1), UniProt Q83884 1-530; Q83885 1-212).
T1 construct: also called NV-VLP; NV-VLPs
T1 sequence 1: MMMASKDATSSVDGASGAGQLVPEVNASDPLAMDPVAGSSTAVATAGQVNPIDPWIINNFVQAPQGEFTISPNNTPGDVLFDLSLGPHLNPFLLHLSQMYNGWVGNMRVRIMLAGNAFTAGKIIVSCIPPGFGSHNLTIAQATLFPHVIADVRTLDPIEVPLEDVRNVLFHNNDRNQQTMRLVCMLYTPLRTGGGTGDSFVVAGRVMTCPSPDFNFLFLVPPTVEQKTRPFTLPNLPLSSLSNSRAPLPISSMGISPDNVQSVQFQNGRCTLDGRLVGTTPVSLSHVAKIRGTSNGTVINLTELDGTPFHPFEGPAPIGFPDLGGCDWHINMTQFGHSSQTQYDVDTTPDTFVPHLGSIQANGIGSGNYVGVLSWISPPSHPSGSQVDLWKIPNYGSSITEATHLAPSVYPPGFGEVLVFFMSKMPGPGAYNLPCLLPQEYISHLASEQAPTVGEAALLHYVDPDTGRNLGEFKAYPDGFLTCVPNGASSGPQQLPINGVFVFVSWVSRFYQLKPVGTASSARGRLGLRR
T1 sequence 2: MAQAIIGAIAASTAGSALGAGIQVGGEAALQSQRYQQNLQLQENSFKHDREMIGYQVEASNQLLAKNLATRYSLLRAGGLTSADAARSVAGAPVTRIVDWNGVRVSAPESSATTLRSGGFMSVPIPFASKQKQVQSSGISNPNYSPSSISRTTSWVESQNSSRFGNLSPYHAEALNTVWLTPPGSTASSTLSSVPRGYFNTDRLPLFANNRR
Briefly: capture ELISA: NV-VLP captured by immobilized polyclonal antibody, M13 phage antibody detection. A general note: An ELISA detects its analyte on a solid surface through an enzyme-linked reagent.

B1: non-peptide displaying M13 phage (other)
chain: AETVESCLAKPHTENSFTNVWKDDKTLDRYANYEGCLWNATGVVVCTGDETQCYGTWVPIGLAIPENEGGGSEGGGSEGGGSEGGGTKPPEYGDTPIPGYTYINPLDGTYPPGTEQNPANPNPSLEESQPLNTFMFQNNRFRNRQGALTVYTGTVTQGTDPVKTYYQYTPVSSKAMYDAYWNGKFRDCAFHSGFNEDPFVCEYQGQSSDLPQPPVNAGGGSGGGSGGGSEGGGSEGGGSEGGGSEGGGSGGGSGSGDFDYEKMANANKGAMTENADENALQSDAKGKLDSVATDYGAAIDGFIGDVSGLANGNGATGDFAGSNSQMAQVGDGDNSPLMNNFRQYLPSLPQSVECRPFVFSAGKPYEFSIDCDKINLFRGVFAFLLYVATFMYVFSTFANILRNKES
notes: Whole phage particle used as negative control; also called M13 control phage
Regarding B1, the binding result is “no binding”.
